Results on one substance are retold here after publication PMC3057456.

The series has as its system LUX ARRHYTHMO (LUX/PCL1) (Arabidopsis). Put plainly: protein binding microarray. As to conditions: not stated in the material.

On to PBM top-ranked 8-mer AGATACGC, for which the binding signal (PBM E-score (-0.5 to 0.5)) worked out at 0.487.
